Laboratory results reported in PMC9169791 (Proceedings of the National Academy of Sciences of the …, 2022).

Molecular target: T1, GST-DDRM1 (Arabidopsis thaliana, UniProt Q9ZW89 1-453)
T1 sequence (looked up): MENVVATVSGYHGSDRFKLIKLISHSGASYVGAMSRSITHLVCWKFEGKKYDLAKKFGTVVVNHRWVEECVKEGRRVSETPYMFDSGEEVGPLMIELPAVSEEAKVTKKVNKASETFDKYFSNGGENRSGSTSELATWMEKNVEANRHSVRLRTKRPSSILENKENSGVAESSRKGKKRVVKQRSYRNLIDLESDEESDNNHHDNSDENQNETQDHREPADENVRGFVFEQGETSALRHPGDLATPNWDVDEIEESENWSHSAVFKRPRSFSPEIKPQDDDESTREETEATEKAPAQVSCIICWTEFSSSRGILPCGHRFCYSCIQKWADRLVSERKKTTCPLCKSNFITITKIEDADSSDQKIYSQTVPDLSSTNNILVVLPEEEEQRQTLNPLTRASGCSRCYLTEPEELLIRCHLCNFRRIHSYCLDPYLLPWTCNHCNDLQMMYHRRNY
Experiment: pull-down

B1: MBP-SOG1 (natural protein, Arabidopsis thaliana, UniProt Q6NQK2 1-449, looked up)
chain: MAGRSWLIDSNRIATKIMSASASSDPRQVVWKSNPSRHCPKCQHVIDNSDVVDDWPGLPRGVKFDPSDPEIIWHLLAKSGLSGLSSHPFIDEFIPTVNQDDGICYTHPKNLPGVKSDGTVSHFFHKAIKAYSTGTRKRRKIHDDDFGDVRWHKTGRTKPVVLDGVQRGCKKIMVLYGGKAVKTNWVMHQYHLGIEEDEKEGDYVVSKIFYQQPQQLVVKRGDKAEQEVSEDIFAAVTPTADPVTPKLATPEPRNAVRICSDSHIASDYVTPSDYVSAHEVSLAETSEVMCMEDEVQSIQPNHERPSSGPELEHGLENGAKEMLDDKEEQEKDRDNENQGEEDPTWFDSGSQFILNSQQLVEALSLCDDLLGSQDREENTNSGSLKDKQPCIADYAHLGPEDFKRDLEECQKIVLDPSNIELDTPPEFRLSQLEFGSQDSFLAWGTGKTD
binding result: binds
